From patent US20250339531A1, “DUX4 POLYPEPTIDES AND NUCLEIC ACIDS FOR TREATING INFLAMMATORY AND AUTOIMMUNE CONDITIONS” (Fred Hutchinson Cancer Center, priority 2021, published 2025)

Experiments:
Test in all cases: anti-FLAG co-IP LC-MS, exp 4, +Dox +IFNG
[1] = molecular target: Histone-binding protein RBBP7 (Homo sapiens) (UniProt Q16576)
[2] = molecular target: 40S ribosomal protein S6 (Homo sapiens) (UniProt P62753)
[3] = molecular target: Nucleosome assembly protein 1-like 1 (Homo sapiens) (UniProt P55209)
[4] = molecular target: Nestin (Homo sapiens) (UniProt P48681)
[5] = molecular target: Junctional sarcoplasmic reticulum protein 1 (Homo sapiens) (UniProt Q96MG2)
[6] = molecular target: Histone acetyltransferase type B catalytic subunit (Homo sapiens) (UniProt O14929)
[7] = molecular target: Clathrin heavy chain (Homo sapiens) (UniProt Q00610)
[8] = molecular target: Alpha-actinin-1 (Homo sapiens) (UniProt P12814)
[9] = molecular target: Plectin (Homo sapiens) (UniProt Q15149)
[10] = molecular target: AP-2 complex subunit mu (Homo sapiens) (UniProt E9PFW3)
[11] = molecular target: Spectrin beta chain (Homo sapiens) (UniProt Q01082)
[12] = molecular target: Eukaryotic initiation factor 4A-II (Homo sapiens) (UniProt Q14240)
[13] = molecular target: Endonuclease domain-containing 1 protein (Homo sapiens) (UniProt O94919)
[14] = molecular target: Ras GTPase-activating protein-binding protein 1 (Homo sapiens) (UniProt Q13283)
[15] = molecular target: Prelamin-A/C (Homo sapiens) (UniProt P02545)
[16] = molecular target: Prostate tumor-overexpressed gene 1 protein (Homo sapiens) (UniProt Q86YD1)
[17] = molecular target: 40S ribosomal protein S3 (Homo sapiens) (UniProt P23396)
[18] = molecular target: Tubulin beta-2A chain (Homo sapiens) (UniProt Q13885)
[19] = molecular target: Protease serine 2 preproprotein (Homo sapiens) (UniProt A6XMV9)
[20] = molecular target: WD repeat-containing protein 1 (Homo sapiens) (UniProt O75083)
[21] = molecular target: 60S ribosomal protein L13 (Homo sapiens) (UniProt P26373)
[22] = molecular target: Vimentin (Homo sapiens) (UniProt P08670)
[23] = molecular target: Protein S100-A6 (Homo sapiens) (UniProt P06703)
[24] = molecular target: Stress-70 protein, mitochondrial (Homo sapiens) (UniProt P38646)
[25] = molecular target: Talin-1 (Homo sapiens) (UniProt Q9Y490)
[26] = molecular target: Myosin regulatory light chain 12A (Homo sapiens) (UniProt J3QRS3)
[27] = molecular target: Tubulin beta-4B chain (Homo sapiens) (UniProt P68371)
[28] = molecular target: Prolyl 4-hydroxylase subunit alpha-1 (Homo sapiens) (UniProt P13674)
[29] = molecular target: Heat shock protein HSP 90-alpha (Homo sapiens) (UniProt P07900)
[30] = molecular target: Tubulin beta-6 chain (Homo sapiens) (UniProt Q9BUF5)
[31] = molecular target: Procollagen-lysine, 2-oxoglutarate 5-dioxygenase 1 (Homo sapiens) (UniProt Q02809)
[32] = molecular target: Transcription intermediary factor 1-beta (Homo sapiens) (UniProt Q13263)
[33] = molecular target: 60S ribosomal protein L5 (Homo sapiens) (UniProt P46777)
[34] = molecular target: Probable ubiquitin carboxyl-terminal hydrolase FAF-X (Homo sapiens) (UniProt Q93008)
[35] = molecular target: Tubulin alpha chain (Homo sapiens) (UniProt F5H5D3)
[36] = molecular target: Filamin-C (Homo sapiens) (UniProt Q14315)
[37] = molecular target: Actin-related protein 3 (Homo sapiens) (UniProt P61158)

Sequence of WD repeat-containing protein 1 (Homo sapiens) (O75083 whole entry): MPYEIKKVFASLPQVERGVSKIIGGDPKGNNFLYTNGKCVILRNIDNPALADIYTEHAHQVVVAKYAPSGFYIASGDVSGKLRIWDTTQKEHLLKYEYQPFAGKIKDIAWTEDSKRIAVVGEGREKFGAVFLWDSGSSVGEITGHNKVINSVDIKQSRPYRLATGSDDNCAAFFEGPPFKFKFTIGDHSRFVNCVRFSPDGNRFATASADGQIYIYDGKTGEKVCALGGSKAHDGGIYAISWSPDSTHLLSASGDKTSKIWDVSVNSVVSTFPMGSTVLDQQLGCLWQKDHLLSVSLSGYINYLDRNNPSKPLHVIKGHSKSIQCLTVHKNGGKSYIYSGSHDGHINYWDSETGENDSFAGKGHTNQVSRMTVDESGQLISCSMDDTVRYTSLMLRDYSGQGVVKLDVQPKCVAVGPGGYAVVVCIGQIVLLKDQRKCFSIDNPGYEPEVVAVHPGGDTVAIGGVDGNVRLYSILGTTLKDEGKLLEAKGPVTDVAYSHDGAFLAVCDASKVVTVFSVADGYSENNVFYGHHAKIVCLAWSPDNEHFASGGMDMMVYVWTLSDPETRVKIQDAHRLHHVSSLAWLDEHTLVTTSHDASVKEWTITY
Sequence of Spectrin beta chain (Homo sapiens) (Q01082 2-2364 limits assumed): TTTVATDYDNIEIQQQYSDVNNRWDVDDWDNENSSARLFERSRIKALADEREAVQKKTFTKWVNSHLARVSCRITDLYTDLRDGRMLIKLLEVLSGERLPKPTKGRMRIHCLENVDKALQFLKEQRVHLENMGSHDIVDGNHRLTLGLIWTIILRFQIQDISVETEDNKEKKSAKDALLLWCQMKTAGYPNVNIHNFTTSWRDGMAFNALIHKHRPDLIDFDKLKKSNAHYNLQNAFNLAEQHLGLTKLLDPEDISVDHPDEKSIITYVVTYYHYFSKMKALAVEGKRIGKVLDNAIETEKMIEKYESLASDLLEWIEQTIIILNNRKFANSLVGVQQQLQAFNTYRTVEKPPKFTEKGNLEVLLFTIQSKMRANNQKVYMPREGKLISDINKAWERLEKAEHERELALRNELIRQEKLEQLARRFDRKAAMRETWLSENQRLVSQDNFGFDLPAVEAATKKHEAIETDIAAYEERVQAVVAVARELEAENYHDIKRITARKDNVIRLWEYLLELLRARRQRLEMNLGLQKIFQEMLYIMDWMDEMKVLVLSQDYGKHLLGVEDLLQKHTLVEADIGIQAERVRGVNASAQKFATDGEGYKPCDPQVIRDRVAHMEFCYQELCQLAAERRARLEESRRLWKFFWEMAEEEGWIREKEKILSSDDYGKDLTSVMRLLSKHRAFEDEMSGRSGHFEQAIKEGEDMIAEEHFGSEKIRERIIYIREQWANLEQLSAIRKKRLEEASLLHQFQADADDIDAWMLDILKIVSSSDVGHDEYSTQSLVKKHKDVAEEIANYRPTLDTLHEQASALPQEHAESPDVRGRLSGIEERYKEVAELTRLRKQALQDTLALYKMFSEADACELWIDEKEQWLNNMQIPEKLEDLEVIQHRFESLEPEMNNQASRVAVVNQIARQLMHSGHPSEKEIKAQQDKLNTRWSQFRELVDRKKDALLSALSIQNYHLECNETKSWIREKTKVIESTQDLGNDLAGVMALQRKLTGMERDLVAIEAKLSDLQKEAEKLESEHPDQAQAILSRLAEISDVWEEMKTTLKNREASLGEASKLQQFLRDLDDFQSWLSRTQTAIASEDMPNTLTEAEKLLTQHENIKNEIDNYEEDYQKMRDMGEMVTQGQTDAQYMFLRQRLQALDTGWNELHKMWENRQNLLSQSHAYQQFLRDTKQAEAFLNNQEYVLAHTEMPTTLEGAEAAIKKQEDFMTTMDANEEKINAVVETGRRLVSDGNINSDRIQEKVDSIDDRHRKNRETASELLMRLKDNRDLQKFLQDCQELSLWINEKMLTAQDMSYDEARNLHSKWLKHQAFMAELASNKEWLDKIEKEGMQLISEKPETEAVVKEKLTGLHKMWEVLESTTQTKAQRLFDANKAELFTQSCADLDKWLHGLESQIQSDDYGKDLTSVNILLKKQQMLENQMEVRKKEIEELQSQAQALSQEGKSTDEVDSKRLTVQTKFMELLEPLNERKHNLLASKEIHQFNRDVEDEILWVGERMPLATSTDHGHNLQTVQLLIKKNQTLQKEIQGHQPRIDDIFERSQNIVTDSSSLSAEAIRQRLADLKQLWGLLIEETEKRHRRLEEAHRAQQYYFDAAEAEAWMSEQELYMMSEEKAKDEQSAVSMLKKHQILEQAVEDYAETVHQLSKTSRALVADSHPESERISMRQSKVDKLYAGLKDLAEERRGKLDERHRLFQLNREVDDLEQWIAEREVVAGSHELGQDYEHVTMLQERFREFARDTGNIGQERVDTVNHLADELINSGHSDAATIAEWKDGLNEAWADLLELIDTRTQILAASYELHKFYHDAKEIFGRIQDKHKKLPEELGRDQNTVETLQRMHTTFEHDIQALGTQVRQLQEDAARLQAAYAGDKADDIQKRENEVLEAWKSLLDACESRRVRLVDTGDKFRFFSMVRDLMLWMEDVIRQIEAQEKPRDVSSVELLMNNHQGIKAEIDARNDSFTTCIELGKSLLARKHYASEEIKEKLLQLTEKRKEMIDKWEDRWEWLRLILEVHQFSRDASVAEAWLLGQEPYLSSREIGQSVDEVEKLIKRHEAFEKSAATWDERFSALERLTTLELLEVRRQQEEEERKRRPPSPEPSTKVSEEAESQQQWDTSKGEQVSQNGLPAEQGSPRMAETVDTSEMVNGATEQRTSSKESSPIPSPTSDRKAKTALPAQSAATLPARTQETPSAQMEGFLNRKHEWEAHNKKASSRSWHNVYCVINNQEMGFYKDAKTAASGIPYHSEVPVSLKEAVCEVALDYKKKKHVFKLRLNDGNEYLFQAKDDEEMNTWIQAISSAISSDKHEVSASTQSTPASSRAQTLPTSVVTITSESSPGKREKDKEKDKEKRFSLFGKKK
Sequence of Tubulin beta-6 chain (Homo sapiens) (Q9BUF5 whole entry): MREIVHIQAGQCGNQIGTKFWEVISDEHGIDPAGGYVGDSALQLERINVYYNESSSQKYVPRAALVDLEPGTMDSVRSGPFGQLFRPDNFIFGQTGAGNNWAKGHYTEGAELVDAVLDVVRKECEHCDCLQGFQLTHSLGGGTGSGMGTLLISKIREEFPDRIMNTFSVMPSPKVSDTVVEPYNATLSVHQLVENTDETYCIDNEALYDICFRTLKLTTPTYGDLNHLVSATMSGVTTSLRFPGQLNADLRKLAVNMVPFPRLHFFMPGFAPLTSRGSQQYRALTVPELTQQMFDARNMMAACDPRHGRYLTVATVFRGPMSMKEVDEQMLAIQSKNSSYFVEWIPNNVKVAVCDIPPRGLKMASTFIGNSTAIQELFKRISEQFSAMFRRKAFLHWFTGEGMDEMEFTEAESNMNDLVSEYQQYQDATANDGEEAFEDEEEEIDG
Sequence of Prostate tumor-overexpressed gene 1 protein (Homo sapiens) (Q86YD1 whole entry): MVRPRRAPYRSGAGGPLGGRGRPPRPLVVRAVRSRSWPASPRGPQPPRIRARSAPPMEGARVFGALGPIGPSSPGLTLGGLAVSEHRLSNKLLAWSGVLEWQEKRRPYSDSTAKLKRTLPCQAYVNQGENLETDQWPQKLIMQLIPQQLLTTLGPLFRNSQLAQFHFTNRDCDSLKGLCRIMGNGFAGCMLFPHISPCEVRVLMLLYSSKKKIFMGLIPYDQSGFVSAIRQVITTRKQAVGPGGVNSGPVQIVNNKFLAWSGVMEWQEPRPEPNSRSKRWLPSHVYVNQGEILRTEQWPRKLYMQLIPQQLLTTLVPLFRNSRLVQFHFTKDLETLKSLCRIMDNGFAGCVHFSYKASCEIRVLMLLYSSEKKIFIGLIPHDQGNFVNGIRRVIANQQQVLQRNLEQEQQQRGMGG
Sequence of AP-2 complex subunit mu (Homo sapiens) (E9PFW3 entry or part of it limits assumed, form in doubt, one chain of several): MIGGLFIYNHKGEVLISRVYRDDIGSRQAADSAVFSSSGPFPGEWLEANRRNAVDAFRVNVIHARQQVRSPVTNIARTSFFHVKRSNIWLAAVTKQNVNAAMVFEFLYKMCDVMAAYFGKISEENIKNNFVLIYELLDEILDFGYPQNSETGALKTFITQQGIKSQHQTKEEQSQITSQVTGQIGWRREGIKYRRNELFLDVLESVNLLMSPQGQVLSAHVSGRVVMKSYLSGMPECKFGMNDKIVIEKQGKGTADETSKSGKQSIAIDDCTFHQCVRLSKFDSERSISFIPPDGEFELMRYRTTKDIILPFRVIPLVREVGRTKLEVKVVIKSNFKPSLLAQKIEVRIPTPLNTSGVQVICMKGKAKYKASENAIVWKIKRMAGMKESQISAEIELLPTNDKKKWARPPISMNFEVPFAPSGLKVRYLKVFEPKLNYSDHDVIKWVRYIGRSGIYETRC
Sequence of Tubulin alpha chain (Homo sapiens) (F5H5D3 entry or part of it limits assumed, form in doubt): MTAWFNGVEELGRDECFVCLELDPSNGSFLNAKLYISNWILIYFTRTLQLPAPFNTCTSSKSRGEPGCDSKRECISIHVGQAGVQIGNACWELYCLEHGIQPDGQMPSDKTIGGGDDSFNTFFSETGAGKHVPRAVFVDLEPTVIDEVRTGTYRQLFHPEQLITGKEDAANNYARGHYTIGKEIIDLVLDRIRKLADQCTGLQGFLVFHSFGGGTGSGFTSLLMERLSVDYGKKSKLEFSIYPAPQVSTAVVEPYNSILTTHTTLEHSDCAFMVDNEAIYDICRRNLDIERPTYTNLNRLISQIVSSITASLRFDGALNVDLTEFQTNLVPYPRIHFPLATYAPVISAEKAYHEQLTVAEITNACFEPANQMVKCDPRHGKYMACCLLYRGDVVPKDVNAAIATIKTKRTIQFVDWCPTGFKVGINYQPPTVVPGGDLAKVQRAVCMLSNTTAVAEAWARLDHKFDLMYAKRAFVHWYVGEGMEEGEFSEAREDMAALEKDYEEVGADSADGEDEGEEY
Sequence of Myosin regulatory light chain 12A (Homo sapiens) (J3QRS3 entry or part of it limits assumed, form in doubt): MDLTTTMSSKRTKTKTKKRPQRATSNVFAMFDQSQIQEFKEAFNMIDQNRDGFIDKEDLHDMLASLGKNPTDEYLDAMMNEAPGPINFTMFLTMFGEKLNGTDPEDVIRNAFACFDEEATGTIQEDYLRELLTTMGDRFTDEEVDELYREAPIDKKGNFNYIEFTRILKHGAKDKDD

i3XFLAG-NLS-CTDaa154-424
PSMs [1]: 5 PSMs | PSMs [2]: 2 PSMs | PSMs [3]: 3 PSMs | PSMs [4]: 2 PSMs | PSMs [5]: 3 PSMs | PSMs [6]: 9 PSMs | PSMs [7]: 28 PSMs | PSMs [8]: 34 PSMs | PSMs [9]: 7 PSMs | PSMs [10]: 3 PSMs | PSMs [11]: 3 PSMs | PSMs [12]: 6 PSMs | PSMs [13]: 2 PSMs | PSMs [14]: 2 PSMs | PSMs [15]: 6 PSMs | PSMs [16]: 2 PSMs | PSMs [17]: 11 PSMs | PSMs [18]: 99 PSMs | PSMs [19]: 2 PSMs | PSMs [20]: 11 PSMs | PSMs [21]: 2 PSMs | PSMs [22]: 55 PSMs | PSMs [23]: 2 PSMs | PSMs [24]: 7 PSMs | PSMs [25]: 3 PSMs | PSMs [26]: 62 PSMs | PSMs [27]: 100 PSMs | PSMs [28]: 9 PSMs | PSMs [29]: 10 PSMs | PSMs [30]: 46 PSMs | PSMs [31]: 6 PSMs | PSMs [32]: 2 PSMs | PSMs [33]: 19 PSMs | PSMs [34]: 3 PSMs | PSMs [35]: 25 PSMs | PSMs [36]: 12 PSMs | PSMs [37]: 3 PSMs
